From IntAct's records for PubMed 21135508

B1: Myotubularin (Homo sapiens), Q13496 (parent)
chain: MASASTSKYNSHSLENESIKRTSRDGVNRDLTEAVPRLPGETLITDKEVIYICPFNGPIKGRVYITNYRLYLRSLETDSSLILDVPLGVISRIEKMGGATSRGENSYGLDITCKDMRNLRFALKQEGHSRRDMFEILTRYAFPLAHSLPLFAFLNEEKFNVDGWTVYNPVEEYRRQGLPNHHWRITFINKCYELCDTYPALLVVPYRASDDDLRRVATFRSRNRIPVLSWIHPENKTVIVRCSQPLVGMSGKRNKDDEKYLDVIRETNKQISKLTIYDARPSVNAVANKATGGGYESDDAYHNAELFFLDIHNIHVMRESLKKVKDIVYPNVEESHWLSSLESTHWLEHIKLVLTGAIQVADKVSSGKSSVLVHCSDGWDRTAQLTSLAMLMLDSFYRSIEGFEILVQKEWISFGHKFASRIGHGDKNHTDADRSPIFLQFIDCVWQMSKQFPTAFEFNEQFLIIILDHLYSCRFGTFLFNCESARERQKVTERTVSLWSLINSNKEKFKNPFYTKEINRVLYPVASMRHLELWVNYYIRWNPRIKQQQPNPVEQRYMELLALRDEYIKRLEELQLANSAKLSDPPTSPSSPSQMMPHVQTHF

Variants of: B1
Conditions: with desm_human DES

Question: R184G was tested. Which “effect of a mutation on the interaction” value did it give?
Answer: disrupting interaction

Question: Which “effect of a mutation on the interaction” value does the source give for P205L here?
Answer: disrupting interaction

Question: Which “effect of a mutation on the interaction” value does the source give for R241C here?
Answer: disrupting interaction

Question: How did the “effect of a mutation on the interaction” value turn out when D278A was run?
Answer: disrupting interaction
